In publication PMC7156710 one finds Kd and binding signal (fold weaker than FGF4) data, which are given here for three substances.

The target in series [1] is Sox2-HMG (Homo sapiens) (UniProt P48431). As to the kind of experiment: fluorescence anisotropy. The note with it: 10 mM Tris-HEPES pH 7.5, 135 mM KCl, 15 mM NaCl, 1 mM DTT, 8% Ficoll, 0.05% NP-40, 0.1 mg/mL BSA; 2 nM DNA or 3 nM RNA; room temperature (stated for …). A general note: Polarisation of emitted light reports the rotation of a fluorescent probe.
Sequence of Sox2-HMG (Homo sapiens) (P48431 40-123): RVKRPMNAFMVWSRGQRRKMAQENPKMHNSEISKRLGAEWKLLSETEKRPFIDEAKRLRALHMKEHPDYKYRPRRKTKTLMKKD
Series [2] has as its target Sox2-HMG (thrombin cleaved) (Homo sapiens) (UniProt P48431). Description: FP. The note with it: 10 mM Tris-HEPES pH 7.5, 8% Ficoll, 0.05% NP-40, 135 mM KCl, 15 mM NaCl, 1 mM DTT, 0.1 mg/mL BSA; 2 nM DNA or 3 nM RNA; low values mean tight binding.
For series [3], the target named is Sox2 full length (Homo sapiens) (UniProt P48431). As to the kind of experiment: FP. The settings on record: 10 mM Tris-HEPES pH 7.5, 8% Ficoll, 0.05% NP-40, 135 mM KCl, 15 mM NaCl, 1 mM DTT, 0.1 mg/mL BSA; 2 nM DNA or 3 nM RNA; low values mean tight binding.
Sequence of Sox2 full length (Homo sapiens) (P48431 whole entry): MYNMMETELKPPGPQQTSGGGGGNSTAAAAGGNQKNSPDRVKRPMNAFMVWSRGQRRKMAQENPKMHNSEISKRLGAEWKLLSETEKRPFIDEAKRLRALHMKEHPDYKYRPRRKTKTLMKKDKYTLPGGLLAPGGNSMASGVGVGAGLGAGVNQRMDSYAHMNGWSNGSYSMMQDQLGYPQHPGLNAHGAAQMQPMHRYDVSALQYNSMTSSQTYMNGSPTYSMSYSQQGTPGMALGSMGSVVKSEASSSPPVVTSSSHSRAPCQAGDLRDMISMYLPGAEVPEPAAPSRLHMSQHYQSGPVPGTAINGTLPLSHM
The target is the same in series [4]. As to the kind of experiment: fluorescence anisotropy. The settings on record: 10 mM Tris-HEPES pH 7.5, 135 mM KCl, 15 mM NaCl, 1 mM DTT, 8% Ficoll, 0.05% NP-40, 0.1 mg/mL BSA; 2 nM DNA or 3 nM RNA; room temperature (stated for …).

pKd: −log10 of the molar value.

Sequence of Sox2-HMG (thrombin cleaved) (Homo sapiens) (P48431 other isoform, or with tags, fused parts or gaps): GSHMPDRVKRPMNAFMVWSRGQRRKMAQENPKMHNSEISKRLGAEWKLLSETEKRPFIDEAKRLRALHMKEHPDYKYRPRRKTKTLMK

As a reminder, the pKd is the Kd on a negative log10 scale, so that one unit is a factor of ten. Regarding “GGAAGAAGUGAAAUCACUAUAUUUAGAAACGAAUGCUACCAUCCCACCCCAACUACAUGUUCAGGUUAAAUGCGUGCACAUCCUGGUAGCUGGAACAUCUGUUUCUAGCUUGUUGUUCCUCUUGGCUGCUUUUCAAUUGGAUUUCCUCGAGCAGGUCCCAGGCUUGUCACUGCAGCCAGGGUCUGUUAACCAUCACCACUGGUUCUACAUUAAGUAGGAGGUUCAGGGCUAAGCUAAUAACUCGCCUGCCUUUCUGACUGAUCACAGUGAUGUUCGCCGUGGCCACUUAUCAUGCGGGCUCCUUUGGGAGGGUGCUCUUCUUUGUCUGUACCUCUGGGUGGAAAGGGCGAAUUC [ES2 lncRNA 1-354]”, the negative-log Kd (pKd) was 7.59 in series [1], 7.59 in series [2] and 7.76 in series [3].

As for ssDNA with consensus site, the binding signal (fold weaker than FGF4) in series [4] is greater than 200. On the same count and under the same terms, as for dsDNA w/o binding site, the figure is greater than 200.
